# Reference: patent publication US20140087995A1 (published 2014)
# Numbered stars: 1 amine (or outer) side, 2 acyl side, 3 side chain; on linkers, the order of the positions; unused ones are H or OH. Bridge positions count the residues as written; N and C are the ends. Side chains are listed from the residue outwards. Ends that are not written are not given here. * marks the point of attachment. C20 diacid = O=C(O)CCCCCCCCCCCCCCCCCCC(=O)*; γGlu = O=C(O)[C@H](CCC(=O)[*:2])N[*:1]
# T1: human calcitonin receptor (human, UniProt P30988 25-474)
# T1 construct: whole, on cells; Used as membranes prepared from the transfected cells (Assay VII); also called hCTR; hCT
# T1 sequence (looked up): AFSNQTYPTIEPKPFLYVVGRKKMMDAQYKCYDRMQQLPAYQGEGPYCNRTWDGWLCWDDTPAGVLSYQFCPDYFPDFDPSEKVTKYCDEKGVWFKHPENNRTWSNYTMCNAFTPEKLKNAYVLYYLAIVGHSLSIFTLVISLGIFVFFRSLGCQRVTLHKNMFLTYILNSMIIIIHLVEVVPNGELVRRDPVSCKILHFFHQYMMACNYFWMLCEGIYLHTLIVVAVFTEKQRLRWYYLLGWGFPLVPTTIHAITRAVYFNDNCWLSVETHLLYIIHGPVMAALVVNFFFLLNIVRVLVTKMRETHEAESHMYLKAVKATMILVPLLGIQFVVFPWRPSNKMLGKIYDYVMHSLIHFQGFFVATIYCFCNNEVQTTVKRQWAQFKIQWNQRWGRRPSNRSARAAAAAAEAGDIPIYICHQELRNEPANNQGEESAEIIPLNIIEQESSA
# Molecular target: T1, human calcitonin receptor
# Experiment: ratio IC50 human calcitonin receptor / IC50 human amylin receptor (Assays VII and V)
# Protocol: The resulting pellet was resuspended, homogenized and centrifuged (20.000 rpm, 15 min) in a buffer containing 20 mM Na-HEPES and 0.1 mM EDTA (pH 7.4, buffer 2). The resulting pellet was resuspended in buffer 2 and protein concentration was measured (BCA protein Assay, Pierce). The homogenate was kept cold during the whole procedure. The membranes were kept at −80° C. until use. The assay was performed in a 384 well Optiplate (PerkinElmer) in a total volume of 40 ul. Membranes were mixed with SPA beads. Final concentration of membranes 35 ng/μL final and SPA beads was 0.05 mg/well. Test-compounds were dissolved in DMSO and further diluted in assay buffer (50 mM Hepes, pH 7.4, 1 mM CaCl2, 5 mM MgCl₂, 0.1% OA and 0.02% Tween20). […] The final mixture was incubated with shaking at 400 rpm for 120 min at 25° C. prior to centrifugation (1500 rpm, 10 min). Samples were analyzed on TopCounter™ (Packard). The IC₅₀ was calculated using (one site binding competition analysis) GraphPad Prism5 as a measure of receptor affinity.
# Membranes were prepared in the following way; the cells were rinsed with PBS and incubated with Versene for approximately 5 min before harvesting. The cells were flushed with PBS and the cell-suspension was centrifuged for 5 min at 1000 rpm. Cells were homogenized (Ultrathurrax) in a buffer containing 20 mM Na-HEPES and 10 mM EDTA (pH 7.4) and centrifuged at 20.000 rpm for 15 min. The resulting pellet was resuspended, homogenized and centrifuged (20.000 rpm, 15 min) in a buffer containing 20 mM Na-HEPES and 0.1 mM EDTA (pH 7.4, buffer 2). The resulting pellet was resuspended in buffer 2 and protein concentration was measured (BCA protein Assay, Pierce). The homogenate was kept cold during the whole procedure. The membranes were kept at −80° C. until use. Assay was performed in a 384 well Optiplate (PerkinElmer) in a total volume of 40 ul. Membranes were mixed with SPA beads.
row,Ratio hCT/hAmylin binding,Binder
1,26,"{C20 diacid-γGlu-γGlu}-KCNTATCATQRLAEFLRHSSPNFGAIPSSTNVGSNTY-NH2 (disulfide 2-7; SMILES CC[C@H](C)[C@H](NC(=O)[C@H](C)NC(=O)CNC(=O)[C@H](Cc1ccccc1)NC(=O)[C@H](CC(N)=O)NC(=O)[C@@H]1CCCN1C(=O)[C@H](CO)NC(=O)[C@H](CO)NC(=O)[C@H](Cc1c[nH]cn1)NC(=O)[C@H](CCCNC(=N)N)NC(=O)[C@H](CC(C)C)NC(=O)[C@H](Cc1ccccc1)NC(=O)[C@H](CCC(=O)O)NC(=O)[C@H](C)NC(=O)[C@H](CC(C)C)NC(=O)[C@H](CCCNC(=N)N)NC(=O)[C@H](CCC(N)=O)NC(=O)[C@@H](NC(=O)[C@H](C)NC(=O)[C@@H]1CSSC[C@H](NC(=O)[C@H](CCCCN)NC(=O)CC[C@H](NC(=O)CC[C@H](NC(=O)CCCCCCCCCCCCCCCCCCC(=O)O)C(=O)O)C(=O)O)C(=O)N[C@@H](CC(N)=O)C(=O)N[C@@H]([C@@H](C)O)C(=O)N[C@@H](C)C(=O)N[C@@H]([C@@H](C)O)C(=O)N1)[C@@H](C)O)C(=O)N1CCC[C@H]1C(=O)N[C@@H](CO)C(=O)N[C@@H](CO)C(=O)N[C@H](C(=O)N[C@@H](CC(N)=O)C(=O)N[C@H](C(=O)NCC(=O)N[C@@H](CO)C(=O)N[C@@H](CC(N)=O)C(=O)N[C@H](C(=O)N[C@@H](Cc1ccc(O)cc1)C(N)=O)[C@@H](C)O)C(C)C)[C@@H](C)O, Derivative of human amylin; also called compound 15)"
2,1,"{C20 diacid-γGlu}-KCNTATCATQRLAEFLRHSSPNFGAIPSSTNVGSDTP-NH2 (disulfide 2-7; SMILES CC[C@H](C)[C@H](NC(=O)[C@H](C)NC(=O)CNC(=O)[C@H](Cc1ccccc1)NC(=O)[C@H](CC(N)=O)NC(=O)[C@@H]1CCCN1C(=O)[C@H](CO)NC(=O)[C@H](CO)NC(=O)[C@H](Cc1c[nH]cn1)NC(=O)[C@H](CCCNC(=N)N)NC(=O)[C@H](CC(C)C)NC(=O)[C@H](Cc1ccccc1)NC(=O)[C@H](CCC(=O)O)NC(=O)[C@H](C)NC(=O)[C@H](CC(C)C)NC(=O)[C@H](CCCNC(=N)N)NC(=O)[C@H](CCC(N)=O)NC(=O)[C@@H](NC(=O)[C@H](C)NC(=O)[C@@H]1CSSC[C@H](NC(=O)[C@H](CCCCN)NC(=O)CC[C@H](NC(=O)CCCCCCCCCCCCCCCCCCC(=O)O)C(=O)O)C(=O)N[C@@H](CC(N)=O)C(=O)N[C@@H]([C@@H](C)O)C(=O)N[C@@H](C)C(=O)N[C@@H]([C@@H](C)O)C(=O)N1)[C@@H](C)O)C(=O)N1CCC[C@H]1C(=O)N[C@@H](CO)C(=O)N[C@@H](CO)C(=O)N[C@H](C(=O)N[C@@H](CC(N)=O)C(=O)N[C@H](C(=O)NCC(=O)N[C@@H](CO)C(=O)N[C@@H](CC(=O)O)C(=O)N[C@H](C(=O)N1CCC[C@H]1C(N)=O)[C@@H](C)O)C(C)C)[C@@H](C)O, Derivative of human amylin; also called compound 11)"
3,2.2,"{C20 diacid-γGlu-γGlu}-KCNTATCATQRLAEFLRHSSPNFGAIPSSTNVGSNTP-NH2 (disulfide 2-7; SMILES CC[C@H](C)[C@H](NC(=O)[C@H](C)NC(=O)CNC(=O)[C@H](Cc1ccccc1)NC(=O)[C@H](CC(N)=O)NC(=O)[C@@H]1CCCN1C(=O)[C@H](CO)NC(=O)[C@H](CO)NC(=O)[C@H](Cc1c[nH]cn1)NC(=O)[C@H](CCCNC(=N)N)NC(=O)[C@H](CC(C)C)NC(=O)[C@H](Cc1ccccc1)NC(=O)[C@H](CCC(=O)O)NC(=O)[C@H](C)NC(=O)[C@H](CC(C)C)NC(=O)[C@H](CCCNC(=N)N)NC(=O)[C@H](CCC(N)=O)NC(=O)[C@@H](NC(=O)[C@H](C)NC(=O)[C@@H]1CSSC[C@H](NC(=O)[C@H](CCCCN)NC(=O)CC[C@H](NC(=O)CC[C@H](NC(=O)CCCCCCCCCCCCCCCCCCC(=O)O)C(=O)O)C(=O)O)C(=O)N[C@@H](CC(N)=O)C(=O)N[C@@H]([C@@H](C)O)C(=O)N[C@@H](C)C(=O)N[C@@H]([C@@H](C)O)C(=O)N1)[C@@H](C)O)C(=O)N1CCC[C@H]1C(=O)N[C@@H](CO)C(=O)N[C@@H](CO)C(=O)N[C@H](C(=O)N[C@@H](CC(N)=O)C(=O)N[C@H](C(=O)NCC(=O)N[C@@H](CO)C(=O)N[C@@H](CC(N)=O)C(=O)N[C@H](C(=O)N1CCC[C@H]1C(N)=O)[C@@H](C)O)C(C)C)[C@@H](C)O, Derivative of human amylin; also called compound 14)"
4,1.2,"K([γGlu-γGlu-C20 diacid])CNTATCATQRLAEFLRHSSPNFGAIPSSTNVGSNTP-NH2 (disulfide 2-7 (inferred), Derivative of human amylin; also called compound 13)"
5,0.5,"{C20 diacid-γGlu}-KCNTATCATQRLAEFLRHSSPNFGAIPSSTNVGSNTP-NH2 (disulfide 2-7, Derivative of human amylin; also called compound 8)"
